Substitutions are numbered along the chain they refer to.
Assays:
[1] = target: Marburg virus Angola GP on rVSV pseudotype (Marburg virus, Angola strain) (UniProt Q1PD50)
[2] = target: Marburg virus Musoke GP on rVSV pseudotype (VSV-MARV Musoke GP) (Marburg virus, Musoke strain) (UniProt P35253)
[3] = target: RAVV GP on rVSV pseudotype (VSV-MARV RAVV GP) (Ravn virus) (UniProt Q1PDC7)
[4] = target: T1, Marburg virus Musoke GP on rVSV pseudotype (VSV-MARV Musoke GP) (Marburg virus, Musoke strain, UniProt P35253 19-681); assay: cell-based or functional assay
T1 sequence: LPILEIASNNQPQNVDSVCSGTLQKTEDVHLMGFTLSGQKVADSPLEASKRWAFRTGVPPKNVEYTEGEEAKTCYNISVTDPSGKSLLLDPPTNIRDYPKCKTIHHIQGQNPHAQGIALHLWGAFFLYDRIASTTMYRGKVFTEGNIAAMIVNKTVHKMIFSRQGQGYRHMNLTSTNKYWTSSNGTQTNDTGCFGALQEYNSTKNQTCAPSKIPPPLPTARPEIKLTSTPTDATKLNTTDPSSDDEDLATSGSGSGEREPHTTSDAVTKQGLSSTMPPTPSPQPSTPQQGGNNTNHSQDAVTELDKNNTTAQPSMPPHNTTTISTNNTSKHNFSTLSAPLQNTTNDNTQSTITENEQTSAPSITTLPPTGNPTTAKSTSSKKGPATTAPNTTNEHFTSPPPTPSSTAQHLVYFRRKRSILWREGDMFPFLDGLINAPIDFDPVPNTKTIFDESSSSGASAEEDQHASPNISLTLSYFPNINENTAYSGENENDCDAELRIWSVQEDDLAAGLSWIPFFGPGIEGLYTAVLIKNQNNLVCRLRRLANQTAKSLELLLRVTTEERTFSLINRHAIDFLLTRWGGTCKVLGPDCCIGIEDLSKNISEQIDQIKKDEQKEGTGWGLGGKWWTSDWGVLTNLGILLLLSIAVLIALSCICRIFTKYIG

[5] = target: T2, RAVV GP on rVSV pseudotype (VSV-MARV RAVV GP) (Ravn virus, UniProt Q1PDC7 19-681); assay: cell-based or functional assay
T2 sequence: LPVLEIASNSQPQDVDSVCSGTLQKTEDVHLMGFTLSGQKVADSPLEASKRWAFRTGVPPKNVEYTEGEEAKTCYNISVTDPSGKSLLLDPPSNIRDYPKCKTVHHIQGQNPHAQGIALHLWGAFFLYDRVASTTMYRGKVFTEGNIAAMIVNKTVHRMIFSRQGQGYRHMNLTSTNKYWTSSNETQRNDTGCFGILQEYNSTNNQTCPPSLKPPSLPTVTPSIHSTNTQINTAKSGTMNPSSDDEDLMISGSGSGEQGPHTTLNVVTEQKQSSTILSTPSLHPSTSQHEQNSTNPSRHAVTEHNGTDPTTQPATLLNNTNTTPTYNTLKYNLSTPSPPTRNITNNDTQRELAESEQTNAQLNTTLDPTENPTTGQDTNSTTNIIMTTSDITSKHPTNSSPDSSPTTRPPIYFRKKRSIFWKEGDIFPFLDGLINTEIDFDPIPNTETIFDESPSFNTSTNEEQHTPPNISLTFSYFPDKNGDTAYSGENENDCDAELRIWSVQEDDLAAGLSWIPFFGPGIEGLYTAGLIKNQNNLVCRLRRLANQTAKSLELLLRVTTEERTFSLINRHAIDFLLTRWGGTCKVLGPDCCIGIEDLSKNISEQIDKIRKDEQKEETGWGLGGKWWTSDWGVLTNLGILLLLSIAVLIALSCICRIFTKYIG

[6] = target: T3, Marburg virus Angola GP on rVSV pseudotype (Marburg virus, Angola strain, UniProt Q1PD50 19-681); assay: cell-based or functional assay
T3 sequence: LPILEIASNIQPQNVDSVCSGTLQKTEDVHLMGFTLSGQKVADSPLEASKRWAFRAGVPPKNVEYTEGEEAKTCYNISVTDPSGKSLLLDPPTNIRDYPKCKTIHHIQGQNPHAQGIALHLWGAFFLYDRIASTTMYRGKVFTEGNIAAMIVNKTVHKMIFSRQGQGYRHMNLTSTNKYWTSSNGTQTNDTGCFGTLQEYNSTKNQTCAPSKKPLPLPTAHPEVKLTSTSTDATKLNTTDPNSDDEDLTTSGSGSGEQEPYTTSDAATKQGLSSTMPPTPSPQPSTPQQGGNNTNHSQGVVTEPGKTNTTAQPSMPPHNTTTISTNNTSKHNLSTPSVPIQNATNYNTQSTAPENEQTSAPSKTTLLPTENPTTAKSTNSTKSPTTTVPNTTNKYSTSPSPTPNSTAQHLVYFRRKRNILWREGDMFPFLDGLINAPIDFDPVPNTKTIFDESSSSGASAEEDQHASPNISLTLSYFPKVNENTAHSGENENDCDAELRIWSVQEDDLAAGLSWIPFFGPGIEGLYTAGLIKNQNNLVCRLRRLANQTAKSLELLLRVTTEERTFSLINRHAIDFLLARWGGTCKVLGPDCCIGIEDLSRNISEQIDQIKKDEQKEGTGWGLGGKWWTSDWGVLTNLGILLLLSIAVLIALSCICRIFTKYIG

**Q.** Which results are given for MR191 (antibody)?
**A.** NT50 [1]: 3.81 µg/mL; NT50 [2]: 2.77 µg/mL; NT50 [3]: 7 µg/mL

B1: R13 (antibody, V domains shown)
VH: EVQLVESGAGLVQPGGSLRLSCAASGFTFSNSWMTWVRQAPGKGLEWLARIKRKADGETADYAASVKGRFTISRDDSKNTLYLQMNSLKTEDTAVYYCTTYNWNFNFDFWGQGVLVTVSS
VL: DIQMTQSPSSLSASVGDRVTITCRASQDISPYLNWYQQKPGKAPKLLIYYGNRLESGVPSRFSGSGSGTDLTLTISSLQPEDFATYYCQQYYRLPLTFGGGTKVETK
**Q.** Which results are given for B1?
**A.** NT50 [4]: 0.03 µg/mL; NT50 [5]: 0.07 µg/mL; NT50 [6]: 0.03 µg/mL

B2: R29 (antibody, V domains shown)
VH: B1 VH with A23I, K43R, L48I, F109Y
VL: B1 VL with T106I
**Q.** Which NT50 [4] does the source give for B2 here?
**A.** 0.02 µg/mL

**Q.** What about the NT50 [5] of the same molecule?
**A.** 0.03 µg/mL

**Q.** And the NT50 [6]?
**A.** 0.02 µg/mL

B3: R24 (antibody, V domains shown)
VH: B1 VH with A24G, S32T, L48V, N79S, F109Y
VL: B1 VL with T106S
**Q.** Which NT50 [4] does the source give for B3 here?
**A.** 0.03 µg/mL

**Q.** And the NT50 [5]?
**A.** 0.06 µg/mL

**Q.** What about the NT50 [6] of the same molecule?
**A.** 0.04 µg/mL

B4: R39 (antibody, V domains shown)
VH: B1 VH with A24G, S32T, L48V, F109Y
VL: B1 VL with T106I
**Q.** Which NT50 [4] does the source give for B4 here?
**A.** 0.04 µg/mL

**Q.** What about the NT50 [5] of the same molecule?
**A.** 0.07 µg/mL

**Q.** And the NT50 [6]?
**A.** 0.03 µg/mL

B5: R25 (antibody, V domains shown)
VH: B1 VH with L48V, A49G, F109H
VL: B1 VL with T106I
**Q.** With B5 as the molecule, how does the NT50 [4] read?
**A.** 0.01 µg/mL

**Q.** And the NT50 [5]?
**A.** 0.04 µg/mL

**Q.** And the NT50 [6]?
**A.** 0.03 µg/mL

B6: R15 (antibody, V domains shown)
VH: B1 VH with Q13R, S32T, K43R, N79H, Y82F, F109N
VL: B1 VL with D28A, I29F, P31S, G51A, G66E, D70E, L71F, T106I
**Q.** How did the NT50 [4] turn out when B6 was run?
**A.** 0.03 µg/mL

**Q.** What about the NT50 [5] of the same molecule?
**A.** 0.08 µg/mL

**Q.** And the NT50 [6]?
**A.** 0.04 µg/mL

B7: R50 (antibody, V domains shown)
VH: QVQLQESGPGLVKPSETLSLTCAVSGDSISSYWWNWIRQPPGKGLEWIGEIYGYSGSTNYNASLKSRVTISKDASKKQLSLKLSSVTAADTAVYYCARDPLNQDAFDFWGLGLRVTVSS
VL: QSALTQPPSVSGSPGQSVTISCTGTSSDIGGYTYVSWYQQHPGKAPKLMIYDVSRRPSGVSDRFSGSKSGNTASLTISGLQAEDEADYYCSSYAGRNALLFGGGTRLTVL
**Q.** Which results are given for B7?
**A.** NT50 [4]: 0.06 µg/mL; NT50 [5]: 0.21 µg/mL; NT50 [6]: 0.05 µg/mL

B8: R18 (antibody, V domains shown)
VH: QVQLQESGPGLVKASETLSLTCAVSGASISSYWWNWIRLSPGKGLEWIGEIYGYSGSTSYKSSLKSRVSISRDASKNQFSLKLTSVTAADTAVYYCARDPLNHDAFDFWGRGLRVTVSS
VL: B7 VL with T23A, S54N, R55E, K68I, R96S, N97K, A98T, L99V, T108S
**Q.** For B8, which NT50 [4] is on record?
**A.** 0.09 µg/mL

**Q.** What about the NT50 [5] of the same molecule?
**A.** 0.18 µg/mL

**Q.** And the NT50 [6]?
**A.** 0.04 µg/mL

B9: R53 (antibody, V domains shown)
VH: B7 VH with D27A, N59Y, N61S, A62P, K77N, L79F, V86A, A97V, L111Q
VL: B7 VL with G31S, T33D, I50M, R55K, S61F, E83D, D87A, Y89F, N97R, A98I
**Q.** Which results are given for B9?
**A.** NT50 [4]: 0.02 µg/mL; NT50 [5]: 0.07 µg/mL; NT50 [6]: 0.02 µg/mL

B10: R55 (antibody, V domains shown)
VH: B7 VH with A62P
VL: B7 VL
**Q.** With B10 as the molecule, how does the NT50 [4] read?
**A.** 0.07 µg/mL

**Q.** What about the NT50 [5] of the same molecule?
**A.** 0.24 µg/mL

**Q.** What about the NT50 [6] of the same molecule?
**A.** 0.07 µg/mL

B11: R63 (antibody, V domains shown)
VH: B8 VH with K61N, T84S, L113F
VL: B7 VL with T23A, S54N, R55E, R96S, N97K, A98T, L99V, L100S, T108S
**Q.** Which results are given for B11?
**A.** NT50 [4]: 0.05 µg/mL; NT50 [5]: 0.17 µg/mL; NT50 [6]: 0.04 µg/mL

B12: R83 (antibody, V domains shown)
VH: B7 VH with D27A, S31D, N59Y, A62P, K82R, S84T, V93I
VL: B7 VL with V35I, H41Y, R55K, I77V, A94G, N97K, A98T
**Q.** For B12, which NT50 [4] is on record?
**A.** 0.05 µg/mL

**Q.** And the NT50 [5]?
**A.** 0.17 µg/mL

**Q.** What about the NT50 [6] of the same molecule?
**A.** 0.03 µg/mL

B13: R64 (antibody, V domains shown)
VH: B7 VH with D27A, I29M, S31D, T58S, N59Y, A62P, T69S
VL: QSALTQPPSVSGSPGLSVTISCTGSGSDIGGYDYVSWYQQHPGKAPKLMIYGVNKRPSGVSDRFSGSKSGNTASLSISGLQAEDEADYYCSSYAGSHTLLFGGGSRLTVL
**Q.** Which results are given for B13?
**A.** NT50 [4]: 0.03 µg/mL; NT50 [5]: 0.09 µg/mL; NT50 [6]: 0.02 µg/mL

B14: R45 (antibody, V domains shown)
VH: EVQLVESGGGLAKPGGSLRLSCAASGFTFGDHWMSWVRQAPGNGLQWISAIDRAGGSTFYADSVKGRFTISRENAKNTLYLQIDSLRPEDTAVYFCARDQGRTVGYLDYWGQGVLVTVSS
VL: QSALTQPRSVSGSPGQSVTISCTGTSSDIGSYTYVSWYRQHPGTAPKLIIYDVDERPSGVSYRFSGSKSGNTASLTISGLQAEDEADYYCSSYAGRNTWVFGGGTRLTVL
**Q.** For B14, which NT50 [4] is on record?
**A.** 0.1 µg/mL

**Q.** And the NT50 [5]?
**A.** 0.27 µg/mL

**Q.** What about the NT50 [6] of the same molecule?
**A.** 0.1 µg/mL

B15: R79 (antibody, V domains shown)
VH: EVQLVESGGGLAKPGGSLRLSCAASGFTFNDYWLFWVRQAPGRGLEWISTINRPGSSTFYADSVKGRFTISRENANNALYLQMDSLRPEDTAVYYCARDQGRTVGYLDYWGQGVLVTVSS
VL: B14 VL with T33S, R39Q, V53D, D54S, Y62D, R96S
**Q.** B15 was tested. Which NT50 [4] did it give?
**A.** 0.17 µg/mL

**Q.** And the NT50 [5]?
**A.** 0.45 µg/mL

**Q.** What about the NT50 [6] of the same molecule?
**A.** 0.21 µg/mL

B16: R80 (antibody, V domains shown)
VH: B15 VH
VL: B14 VL with T33S, R39Q, V53D, D54S, Y62D, R96S
**Q.** Which NT50 [4] does the source give for B16 here?
**A.** 0.21 µg/mL

**Q.** What about the NT50 [5] of the same molecule?
**A.** 0.3 µg/mL

**Q.** What about the NT50 [6] of the same molecule?
**A.** 0.26 µg/mL

From US20230235029A1 (INTEGRATED BIOTHERAPEUTICS, published 2023)
